Data on 84 variants can be found in publication PMC13397619.

The chains are these.
B1: NLV3 TCR beta chain (CDR3β only) (parent)
chain: ASSPTGGSPSPLH
partner: NLCPMVATV

The first assay covers variants of B1. Kind of assay: T-Switch: Jurkat TCRβ−/− cells expressing a CDR3 saturation-mutagenesis library, stained with two peptide-HLA-A*02:01 tetramers (original and novel peptide) plus anti-CD3, FACS-sorted into four gates, gDNA sequenced. The conditions noted are these: with HLA-A*02:01 with peptide … (NLV 2-1, the novel peptide), tetramers 1 µg/mL, 30 min on ice, SP, DP and SW gates expanded about 10 days between rounds ('two to three rounds of selection' in the Methods), gate SW: higher = more of the variant in the gate that binds the novel peptide and not the original one = switched binding. Fold enrichment of the CDR3 variant in one FACS gate of a two-tetramer stain, unresolved parent, parent is a CDR3 fragment, scale: fold enrichment, numbering: sequential-on-construct, sequence starts at 1.
Regarding […] (CDR3 as printed); S3Y derived by comparing it with the table's wild-type CDR3 ASSPTGGSPSPLH, the enrichment was 0.
On the same count and under the same terms, under […] (CDR3 as printed); S2R derived by comparing it with the table's wild-type CDR3 ASSPTGGSPSPLH stands 0; under […] (CDR3 as printed); S2V derived by comparing it with the table's wild-type CDR3 ASSPTGGSPSPLH, 0.
Still for that read-out and setting: under […] (CDR3 as printed); S10D derived by comparing it with the table's wild-type CDR3 ASSPTGGSPSPLH stands 0; under […] (CDR3 as printed); S10E derived by comparing it with the table's wild-type CDR3 ASSPTGGSPSPLH, 0.
Same read-out and setting: under […] (CDR3 as printed); S8H derived by comparing it with the table's wild-type CDR3 ASSPTGGSPSPLH stands 0; under […] (CDR3 as printed); T5N derived by comparing it with the table's wild-type CDR3 ASSPTGGSPSPLH, 0; under […] (CDR3 as printed); S10V derived by comparing it with the table's wild-type CDR3 ASSPTGGSPSPLH, 0.
Take […] (CDR3 as printed); S2T derived by comparing it with the table's wild-type CDR3 ASSPTGGSPSPLH: the enrichment worked out at 0.
As to […] (CDR3 as printed); S10K derived by comparing it with the table's wild-type CDR3 ASSPTGGSPSPLH, the enrichment was 0.
[…] (CDR3 as printed); S8T derived by comparing it with the table's wild-type CDR3 ASSPTGGSPSPLH: the enrichment is 0.
For the variant […] (CDR3 as printed); S10A derived by comparing it with the table's wild-type CDR3 ASSPTGGSPSPLH, the enrichment is 0.
For […] (CDR3 as printed); S3I derived by comparing it with the table's wild-type CDR3 ASSPTGGSPSPLH, the enrichment was 0.
The same measure, in the same setting: under […] (CDR3 as printed); S10M derived by comparing it with the table's wild-type CDR3 ASSPTGGSPSPLH stands 0; under […] (CDR3 as printed); S3T derived by comparing it with the table's wild-type CDR3 ASSPTGGSPSPLH, 0.
As for […] (CDR3 as printed); S3M derived by comparing it with the table's wild-type CDR3 ASSPTGGSPSPLH, the enrichment turned out to be 0.
Regarding […] (CDR3 as printed); S10L derived by comparing it with the table's wild-type CDR3 ASSPTGGSPSPLH, the enrichment was 0.
[…] (CDR3 as printed); S8N derived by comparing it with the table's wild-type CDR3 ASSPTGGSPSPLH: the enrichment amounted to 0.
Still for that read-out and setting: under […] (CDR3 as printed); S8P derived by comparing it with the table's wild-type CDR3 ASSPTGGSPSPLH stands 0; under […] (CDR3 as printed); S2N derived by comparing it with the table's wild-type CDR3 ASSPTGGSPSPLH, 0.
The same measure, in the same setting: then […] (CDR3 as printed); S3Q derived by comparing it with the table's wild-type CDR3 ASSPTGGSPSPLH, with 0; and […] (CDR3 as printed); S8I derived by comparing it with the table's wild-type CDR3 ASSPTGGSPSPLH, with 0.
Turning to […] (CDR3 as printed); T5E derived by comparing it with the table's wild-type CDR3 ASSPTGGSPSPLH, the enrichment was 0.
For […] (CDR3 as printed); S2Q derived by comparing it with the table's wild-type CDR3 ASSPTGGSPSPLH, the enrichment is 0.
As for […] (CDR3 as printed); S3E derived by comparing it with the table's wild-type CDR3 ASSPTGGSPSPLH, the enrichment was 0.
On the same count and under the same terms, then […] (CDR3 as printed); S8D derived by comparing it with the table's wild-type CDR3 ASSPTGGSPSPLH, with 0.
Regarding […] (CDR3 as printed); S10G derived by comparing it with the table's wild-type CDR3 ASSPTGGSPSPLH, the enrichment came to 0.
On to […] (CDR3 as printed); T5W derived by comparing it with the table's wild-type CDR3 ASSPTGGSPSPLH, for which the enrichment was determined as 0.
As to […] (CDR3 as printed); S2Y derived by comparing it with the table's wild-type CDR3 ASSPTGGSPSPLH, the enrichment came out at 0.
The same measure, in the same setting: then […] (CDR3 as printed); S8Q derived by comparing it with the table's wild-type CDR3 ASSPTGGSPSPLH, with 0; and […] (CDR3 as printed); S10R derived by comparing it with the table's wild-type CDR3 ASSPTGGSPSPLH, with 0; and […] (CDR3 as printed); S3V derived by comparing it with the table's wild-type CDR3 ASSPTGGSPSPLH, with 0.
Consider […] (CDR3 as printed); S2M derived by comparing it with the table's wild-type CDR3 ASSPTGGSPSPLH, for which the enrichment was determined as 0.
For […] (CDR3 as printed); T5P derived by comparing it with the table's wild-type CDR3 ASSPTGGSPSPLH, the enrichment is 0.
For […] (CDR3 as printed); S8W derived by comparing it with the table's wild-type CDR3 ASSPTGGSPSPLH, the enrichment was 0.
On to […] (CDR3 as printed); S10I derived by comparing it with the table's wild-type CDR3 ASSPTGGSPSPLH, for which the enrichment worked out at 0.
Still for that read-out and setting: under […] (CDR3 as printed); S8A derived by comparing it with the table's wild-type CDR3 ASSPTGGSPSPLH stands 0; under […] (CDR3 as printed); T5A derived by comparing it with the table's wild-type CDR3 ASSPTGGSPSPLH, 0.
Same read-out and setting: then […] (CDR3 as printed); S3D derived by comparing it with the table's wild-type CDR3 ASSPTGGSPSPLH, with 0; and […] (CDR3 as printed); S3A derived by comparing it with the table's wild-type CDR3 ASSPTGGSPSPLH, with 0.
The same measure, in the same setting: then […] (CDR3 as printed); S8Y derived by comparing it with the table's wild-type CDR3 ASSPTGGSPSPLH, with 0; and […] (CDR3 as printed); S10T derived by comparing it with the table's wild-type CDR3 ASSPTGGSPSPLH, with 0.
In the case of […] (CDR3 as printed); T5H derived by comparing it with the table's wild-type CDR3 ASSPTGGSPSPLH, the enrichment came to 0.
Turning to […] (CDR3 as printed); T5K derived by comparing it with the table's wild-type CDR3 ASSPTGGSPSPLH, the enrichment worked out at 0.
In the case of […] (CDR3 as printed); S3N derived by comparing it with the table's wild-type CDR3 ASSPTGGSPSPLH, the enrichment was 0.
In the case of […] (CDR3 as printed); T5R derived by comparing it with the table's wild-type CDR3 ASSPTGGSPSPLH, the enrichment was determined as 0.
[…] (CDR3 as printed); T5Y derived by comparing it with the table's wild-type CDR3 ASSPTGGSPSPLH: the enrichment was determined as 0.
The same measure, in the same setting: under […] (CDR3 as printed); S8F derived by comparing it with the table's wild-type CDR3 ASSPTGGSPSPLH stands 0; under […] (CDR3 as printed); S3R derived by comparing it with the table's wild-type CDR3 ASSPTGGSPSPLH, 0.
Still for that read-out and setting: under […] (CDR3 as printed); S3W derived by comparing it with the table's wild-type CDR3 ASSPTGGSPSPLH stands 0.
In the case of […] (CDR3 as printed); S2K derived by comparing it with the table's wild-type CDR3 ASSPTGGSPSPLH, the enrichment came out at 0.
On the same count and under the same terms, then […] (CDR3 as printed); S10P derived by comparing it with the table's wild-type CDR3 ASSPTGGSPSPLH, with 0; and […] (CDR3 as printed); S8K derived by comparing it with the table's wild-type CDR3 ASSPTGGSPSPLH, with 0; and […] (CDR3 as printed); S10Q derived by comparing it with the table's wild-type CDR3 ASSPTGGSPSPLH, with 0.
On the same count and under the same terms, under […] (CDR3 as printed); T5V derived by comparing it with the table's wild-type CDR3 ASSPTGGSPSPLH stands 0.
For the variant […] (CDR3 as printed); T5G derived by comparing it with the table's wild-type CDR3 ASSPTGGSPSPLH, the enrichment was determined as 0.
The same measure, in the same setting: then […] (CDR3 as printed); S8E derived by comparing it with the table's wild-type CDR3 ASSPTGGSPSPLH, with 0.
On the same count and under the same terms, under […] (CDR3 as printed); S3G derived by comparing it with the table's wild-type CDR3 ASSPTGGSPSPLH stands 0; under […] (CDR3 as printed); T5C derived by comparing it with the table's wild-type CDR3 ASSPTGGSPSPLH, 0; under […] (CDR3 as printed); T5Q derived by comparing it with the table's wild-type CDR3 ASSPTGGSPSPLH, 0.
With […] (CDR3 as printed); T5L derived by comparing it with the table's wild-type CDR3 ASSPTGGSPSPLH, the enrichment stood at 0.
Consider […] (CDR3 as printed); S8R derived by comparing it with the table's wild-type CDR3 ASSPTGGSPSPLH, for which the enrichment stood at 0.
With […] (CDR3 as printed); T5M derived by comparing it with the table's wild-type CDR3 ASSPTGGSPSPLH, the enrichment stood at 0.
In the case of […] (CDR3 as printed); S8V derived by comparing it with the table's wild-type CDR3 ASSPTGGSPSPLH, the enrichment amounted to 0.
The same measure, in the same setting: under […] (CDR3 as printed); S10N derived by comparing it with the table's wild-type CDR3 ASSPTGGSPSPLH stands 0; under […] (CDR3 as printed); S3L derived by comparing it with the table's wild-type CDR3 ASSPTGGSPSPLH, 0.
Same read-out and setting: then […] (CDR3 as printed); T5D derived by comparing it with the table's wild-type CDR3 ASSPTGGSPSPLH, with 0; and […] (CDR3 as printed); S10F derived by comparing it with the table's wild-type CDR3 ASSPTGGSPSPLH, with 0.
The same measure, in the same setting: then […] (CDR3 as printed); S8L derived by comparing it with the table's wild-type CDR3 ASSPTGGSPSPLH, with 0.
Regarding […] (CDR3 as printed); S2P derived by comparing it with the table's wild-type CDR3 ASSPTGGSPSPLH, the enrichment was 0.
In the case of […] (CDR3 as printed); S3C derived by comparing it with the table's wild-type CDR3 ASSPTGGSPSPLH, the enrichment was 0.
On to […] (CDR3 as printed); T5I derived by comparing it with the table's wild-type CDR3 ASSPTGGSPSPLH, for which the enrichment came to 0.
On the same count and under the same terms, under […] (CDR3 as printed); S3P derived by comparing it with the table's wild-type CDR3 ASSPTGGSPSPLH stands 0.
With […] (CDR3 as printed); S3K derived by comparing it with the table's wild-type CDR3 ASSPTGGSPSPLH, the enrichment is 0.
Still for that read-out and setting: then […] (CDR3 as printed); S8M derived by comparing it with the table's wild-type CDR3 ASSPTGGSPSPLH, with 0; and […] (CDR3 as printed); S10W derived by comparing it with the table's wild-type CDR3 ASSPTGGSPSPLH, with 0.
On to […] (CDR3 as printed); S8C derived by comparing it with the table's wild-type CDR3 ASSPTGGSPSPLH, for which the enrichment turned out to be 0.
Consider […] (CDR3 as printed); S3F derived by comparing it with the table's wild-type CDR3 ASSPTGGSPSPLH, for which the enrichment turned out to be 0.
Still for that read-out and setting: then […] (CDR3 as printed); S8G derived by comparing it with the table's wild-type CDR3 ASSPTGGSPSPLH, with 0.
Take […] (CDR3 as printed); S10H derived by comparing it with the table's wild-type CDR3 ASSPTGGSPSPLH: the enrichment turned out to be 0.
For the variant […] (CDR3 as printed); T5F derived by comparing it with the table's wild-type CDR3 ASSPTGGSPSPLH, the enrichment turned out to be 0.
On the same count and under the same terms, then […] (CDR3 as printed); S3H derived by comparing it with the table's wild-type CDR3 ASSPTGGSPSPLH, with 0.

Staying with this assay, now noted: with HLA-A*02:01 with peptide … (NLV 2-1, the novel peptide), tetramers 1 µg/mL, 30 min on ice, SP, DP and SW gates expanded about 10 days between rounds ('two to three rounds of selection' in the Methods), gate SW: higher = more of the variant in the gate that binds the novel peptide and not the original one = switched binding. Fold enrichment of the CDR3 variant in one FACS gate of a two-tetramer stain, unresolved parent, parent is a CDR3 fragment, zero in all gates, scale: fold enrichment, numbering: sequential-on-construct, ….
Regarding […] (CDR3 as printed); S2L derived by comparing it with the table's wild-type CDR3 ASSPTGGSPSPLH, the enrichment is 0.
As to […] (CDR3 as printed); G7P derived by comparing it with the table's wild-type CDR3 ASSPTGGSPSPLH, the enrichment is 0.
